Test results reported in the DeepSol protein solubility set.

experiment: soluble on expression in E. coli; label from the status in PepcDB or PDB records

Row | Sequence | soluble on expression in E. coli
1 | MKLYVLIIAIILSIGTARTQNIDSLLMQREDTTQFIRSDSLVLQFLEYSNIPITDNNKVKLIKSGREKFEDLFEAIRGAKHHIHLEYFNFRNDSIANALFDLLGEKVKEGVKVRAMFDAFGNWSNNKPLKKRHLKAIREKGIEIVKFDPFKFPYINHAAHRDHRKIAVIDGKIGYTGGMNIADYYINGLPKIGTWRDMHIRIEGDAVNILQEIFLDIWNKTTKQNIVGEEYFPNHPERADSCNTVISIVDRTPKRNSRMLSHTYAMSIYAAQHDVRIVNPYFVPTSSIRKALKRALNRGTKVEIMISSKSDIPFTPDASLYAVQKLMKKGAMIYLYNGGFHHSKIMMVDDLFCTVGTANLNSRSLRYDYETNAFIFDKDITQQLNDVFEADMLHCTRLTPEMWKQKSAWKKFKCWFANLFTPFL | not soluble
2 | MKMDTGALTFQQKIYWLVKQIPLGRVATYGQIAALCGWPRHGRYVGYALYRVAPNSDIPWHRVVNAQGKISYAPQRRGTDELQRWRLAAEGIIFTAGDRINLRRYQWQPPATVYQQLIWPEGAATDSAKALEHHHHHH | soluble
3 | MKMKLAVLPGDGIGPEVMDAAIRVLKTVLDNDGHEAVFENALIGGAAIDEAGTPLPEETLDICRRSDAILLGAVGGPKWDHNPASLRPEKGLLGLRKEMGLFANLRPVKAYATLLNASPLKRERVENVDLVIVRELTGGLYFGRPSERRGPGENEVVDTLAYTREEIERIIEKAFQLAQIRRKKLASVDKANVLESSRMWREIAEETAKKYPDVELSHMLVDSTSMQLIANPGQFDVIVTENMFGDILSDEASVITGSLGMLPSASLRSDRFGMYEPVHGSAPDIAGQGKANPLGTVLSAALMLRYSFGLEKEAAAIEKAVDDVLQDGYCTGDLQVANGKVVSTIELTDRLIEKLNNSAAGPRIFQ | soluble
4 | MKMQTYYYVLASRRFLLQEEPIEEVLKERTRHYHEQEKEIDFWLVPQPAFLEAPEFADIKAKCPQPAAAIISTNSQFITWLKLRLEYVVTGEFSAPSETIPNPLASLATASLEHHHHHH | soluble
5 | MKNRYAKVSNMAKNASSPSRRFMKLAGMTASIATKTVSNSIRNLTADDEQKLASKTKLFQDIGIQIADTLGEMKGAVMKVGQIASQYKDIFPPEVAKAIAKLQRQAPAVPFSAIQQQVEKELGKPLLQAFQSFDQQPFAAASIGQVHRAVLPDGQEVVVKVQYPGVDEACESDLKQVRLALRLMGVIKIDKKLQDQLFTEIQDSLSDELNYEIEAQNLEVFKTFHQQLDNKIIIPTVYKNYSSRRILTLSLERGDSIETASTWPLETRNQIGRRLIRALGQEIFYLKRFHCDPHPGNFAFREDGTVIIYDFGGVKTLSSDIVSHFKHLVQAARQQDITAIENHLDALHSLSDKGLFPEELYLQWLEVLLRPLTTHYDFAENSAHHDGVTLVKKSLKYWDVFKPSPDTLMVNRTISGHYWNLIHLKVHDDLSDLFEELVPTTIN | not soluble
6 | MKNYKKYYIIPAPPEEVYLALTVPTTLLLWTGEEAVMSTEPESEFSLWGGSIEGRNIEFIEGKKIVQQWYFGDQEEPSIVTIILHPDKQDSTSAELRHTNIPDEAYEDMVEGWNGAYFGALQEFYEDEELEHHHHHH | soluble
7 | MKPARLSQTVVAPGCWGELPWGNYYREALEQQLNPWFAKMYGFHLLKIGNLSAEINSEACAVSHQVNVSSQGSPMQVLADPLHLPFADKSVDVCLLAHTLPWCTDPHRLLREADRVLIDDGWLVISGFNPLSLMGLRKLVPVLRKTPPYNSRMFTLMRQLDWLSLLNFEVLHYSRFHVLPWKKQGGRLLNTHIPALGCLQLIVARKRTIPLTLNPLRHNKSKTPIRQTVGATRQYRKPDG | not soluble
8 | MKPKEDREWEKFKTKHITSQSVADFNCNRTMNDPAYTPDGQCKPINTFIHSTTGPVKEICRRATGRVNKSSTQQFTLTTCKNPIRCKYSQSNTTNFICITCRDNYPVHFVKTGKC | soluble
9 | MKPLPDYNHSVVEQLNALTAAGTLQADAAQLGVAAHLDRILADLKARKPARKKSALGWMFARKAGPAAFVKGLYVHGSVGRGKTMLMDMFYEMAPVSSKRRCHFHEFMADVHNRVHTHRQKLKNGETKQADPIPPVAAQLLAEAELLCFDEFTVTDIADAMILARLFSELFANGCTLVTTSNVVPDNLYKDGLNRGLFLPFVDLLKKYVEVVTLDSPTDYRMEKLESLPVYITPLDGSADQAMDMAWRHMTAGHLVAPTEIPMKGRSILVPRRQRPGCPFFLFRPLRKAARSFRLSRHRQSFRYGLHRSHSASQCRQALEHHHHHH | soluble
10 | MKPRETKLLGSIREAIEKTGLKDGMTISFHHHFREGDYVMNLVLAEIAAMGLKNISIAPSSIANVHEPLIEHIKNGVVTNITSSGLRDKVGAAISAGIMENPVVIRSHGGRARAVAAGDIHIDVAFLGAPSSDAYGNANGTKGKATCGSLGYAMVDAKYADQVVIITDTLVPYPNTPISIPQTDVDYVVEIDAIGDPDGIAKGATRFTKNPKELLIAEYAAKIITHSPYYKEGFSFQTGTGGSSLAVTRFMREQMLKDGIKASFALGGITNAMVELLEEGLVEKIIDVQDFDHPSAISLGENANHYEIDANMYASPLSKGAVINQLDTAILSALEVDTDFNVNVITGSDGVIRGASGGHSDTSMACKMSLVIAPLVRGRIPTIVEQVNTVVTPGTSVDVVVTEVGIAINPKRTDLIDCFKTLDVPQFTLEELKDKAYNIVGTPEPIKYGDKVVALIEYRDGSLIDVVRNVLEHHHHHH | soluble
11 | MKPVSGSFSGYHPMATVSEQPVAKPRASESPQSESIEERPACLAPVAGAGQPLPGASSSLSAYLLLRRLDHRPVSQEGINALTPADEAVVEARNALPFGRGNVGVDAQKTDLESSIRTRSVMRLTRDAEAAGHTPMRGVDADMNWNVLVAMSGRIFGAGNCREHARIASFAYGGLAQESGRSSEEKIHLATKAGVDHVWVETDHPDADSSPMVIDPWANGSAILAEDSRFAKDRSAVTRTDTFDLSLAAEAGQIAKATAEEALAHTQGRLQQRLASERPDAVPLESGRYREEVSVLDDTFARRVGQKVNTADPRGMLNVELEAVGVAMSLGGEGVKPLTQEASQIVEKAKKFASPGGMPRDA | not soluble
12 | MKQFKRGIERDGTGFVVLMAEEAEDMWHIYNLIRIGDIIKASTIRKVVSETSTGTTSSQRVHTMLTVSVESIDFDPGAQELHLKGRNIEENDIVKLGAYHTIDLEPNRKFTLQKTEWDSIDLERLNLALDPAQAADVAAVVLHEGLANVCLITPAMTLTRAKIDMTIPRKRKGFTSQHEKGLEKFYEAVSTAFMRHVNLQVVKCVIVASRGFVKDAFMQHLIAHADANGKKFTTEQRAKFMLTHSSSGFKHALKEVLETPQVALRLADTKAQGEVKALNQFLELMSTEPDRAFYGFNHVNRANQELAIETLLVADSLFRAQDIETRRKYVRLVESVREQNGKVHIFSSMHVSGEQLAQLTGCAAILRFPMPDLDDEPMDEN | not soluble
13 | MKQGTMKILFFVLKTKLLKNGEAPILMRITINGQYEETRIQRSVPLKLWNAAKGCSKGKDRASNELNSYLSELATRALEKYKELILEQAISTPSLILKRVFGKDTEMRTLLGTIRQEIKEMEKVVNIDYAPVTINRYKNVLKKLENSIPTFYDKEDITFHELTPEFIKAFDLHLKTEVGLCRNTIVRYMKCFKKITNMALAKGWMKKDAFYGYKMEQDETDPVFLTYDELQTVMNKEFTIPRLVLVRDIFIFACFTGLAFADVSTLKKEDLVQDNNGDWWIRKGRIKLMHRHKASSICNIPLLPVPLAILKKYENNPVCIKKGCCLPVPCNQKMNSYLKEIADFCGIKKNITTHAGRHTFGTTITLANNVPLQDVSVMLGHASTRMTQHYARVMNASLKKSMLNVKKRLTQ | not soluble
14 | MKQKKAWAIVKEVIEEADIVVEVVDARDPIGTRNKKLERMVLESGKKLLLVMNKADLVPKEWAEEYKRKSEIPVVFISARERKGTGILRRELKKIAKMINKERVKVALIGYPNVGKSTIINVLKGKHSVGTAPIPGYTKGKQMIRLTKKIWLLDTPGVVPIDDFDELVIKGGFPADKIREPVKPALKLIRRILETRKEALTEKFNITEFEDEEDILRKIGERRGIIREGGVVDIEETARWFLREWQTGRFTLFSTEEKREEEYIESFDEILEIIKEQNLTDPRMIIWKFGNILEDYLGAERRFGAIKVGEFMIAIATGFKKCPNAIKFVERITRKNAVAAECFGKKWKGIVAILE | soluble
15 | MKQLNGGNVYRPTGKEKNLQAILNIHRHVIQNISPVTITAGKTLDIKIDNQSHILLITKGAIKVCRRIDSIVMGCGVSPMILGLVDAYADLYQLEENSDVFFIAETTCEYYPVPVKDFVEIADEKHLWRDISNILMYRIAFMTNRDRNLIGQDAYSQIKALLLELWSYPESSRFEINAQNFIQQRTGLSRSRIMQVLSELKAGDYIKILHGRLLELRNLPVSF | not soluble
16 | MKQTPPLISFITICYNGLDDTCMLIESLRDTISSVSYEIIVVDNASRQDEASLIQERYPFVRTLRSEKNLGFSGGNNLGIQIAQGKYLFLINNDTYLTEDGLPALIERLESDPRIGAVSPKIRFAFPPQSIQFAGYTKLSRYTMRNKALGMGCPDDGTFDTPRPSAYLHGAALMLKREVIWKAGLMPEIYFLYYEELDWCTSMTRAGYQLWYEPRCTIFHKESQSTGRQSPLRTFYMMRNRMLYAWRNLPGMERCLAIAYQMLIVAPKDSLCFVLKGEPKLAKAVWHGVKGFWKLC | not soluble
17 | MKQWREKSRQLAERGDLTPADWSNLELYCVNYSIYRKAVADLAARGFSIVNSQGGESRNPALSAKSDAERVMIKMASLLGFDPISRRKNPPETEEEDELDRLE | not soluble
18 | MKRDGHTHTEFCPHGTHDDVEEMILKAIELDFDEYSIVEHAPLSSEFMKNTAGNQEAVTTASMSMSDLPYYFKKMNQMKKKYASDLLIHIGFEVDYLIGYEDFTRDFLNEYGPQTDDGVLSLHFLEGQGGFRSIDFTAEDYNEGIVQFYGGFEQAQLVYLAGVKQSIEADLGAFKPRRIGHISLCQKFQQFFGADGRDFTAEVIAEFEAILALVKKRGYELDFNTAGLFKPLCKETYPPKEIVTLARALEIPFVYGSDSHGVADIGRGYNTYCQK | not soluble
19 | MKRDRSDYEESMKHIDIVESLMMLSRSFVVKQIDVKQSTGSKTNHNNHFECKTCNRKFDSFQALGGHRASHKKPKLIVDQEQVKHRNKENDMHKCTICDQMFGTGQALGGHMRKHRTSMITEQSIVPSVVYSRPVFNRCSSSKEILDLNLTPLENDLVLIFGKNLVPQIDLKFVN | soluble
20 | MKRFAFFDVDDTLITVKSMFDFFRYWTLEWRRESAALEAFEREFSQLRAAGESRENLNRAYYRYFAGIRSEDIERAGAAWASAWLAHPERFFIAAPVHLLRELSADGVEPVFVSGSFDAVLRPIADHLSVTNILAAPLELRADGCYTGRIGTPQTIGAGKAVAIRNFLSEQKVRADVCLAVGDDISDLPMLQSVGTAVVVGEHPQLTEIADARSWRRLPAMAE | not soluble
21 | MKRGEELPPLEIEVTRTLIVAGAIASRDYQDVHHDAESARRRGSPDIFMNILTTNGLVGRYITDHFGPGAVLRKVAIRLGAPNYPGDTMVLTGTVVEVEGDTATVKVIGANGIGTHVRGTVTVTVPPGSASLEHHHHHH | not soluble
22 | MKRILLLGGITEALAIARKLGPEHIYSLAGVGRVPTDLACQLKVGGYGGAEGMAQYIRDQGVDLLLDATHPYAAQISRNAALAARIAGIPCWALRRTAWQPGPDDDWREVADWSALVTALAPFKRPLFTLGREPLQHLNEIPKHQFWTLRALDSYPGNDRCEVIGARGPFVLEDERQLFEQRNIDVLISKNSGSSSTEPKLDVARERGLPVLILKRPQLPDVDRILWSVDEVLGVLGLAETSPKPR | not soluble
